Test: soluble on expression in E. coli; label from the status in PepcDB or PDB records

Sequence | soluble on expression in E. coli
MGSDKIHHHHHHMIIENLSQLYPKGYLSKTIGSEATYSIPVDDQFFIVNKAFLSIKEQHLLEALFPISENPTITGNHPWFSYLFQQAKLPAEGTFRMLQIQTNVTKELQAEWQFNLTKMFPDTVDCFSPSNNMYILVEEQSKNTFQQEEIQGIFLTLDTDFDCTSAVFVGNFYSSEDILRRCFHEEQRIFSEELNSSSRTTVFSLTDVALHYFTKEAMSQNVLVEYYRRLLNKDTDIQPIISALWKNQGNISSTAKDLFMHRNTLHYRLEKFFEQTGLSLKKMDDLIFCYLLLRK | not soluble
MGSDKIHHHHHHEEYFNAIRTNIQLSGVDIKVVGITSVKSNEGKSTTAASLAIAYARSGYKTVLVDADIRNSVMPGFFKPMTKITGLTDYLAGTTDLSQGLCDTDIPNLTVIESGKVSPNPTALLQSKSFENLLATLRRYYDYVIVDCPPLGLVIDAAIIAQKCDAMVAVVEAGNVKCSSLKKVKEQLEQTGTPFLGVILNKYDIATEKYGEYGNYGKKA | not soluble
MNEFEDLLNSVSEVNPGDVVTAEVLTVDNGQANVVIDGTGVEGVLTLRELTNDRDADINDFVKAGDTVEVLVLRQVVGKDTDTVTFLVSKKRLEARKAWDKLVGREGEVVTVKGTRAVKGGLSVEFEGLRGFIPASMIDTRFVRNTEKFVGQEFDAKIKEVDAAENRFILSRREVVEESAAAARKEVFSNIEVGSVVTGKVARLTSFGAFIDLGGVDGLVHVTELSHERNVSPKSVVTVGEEVEVKVLSIDEEAGRVSLSLKATTPGPWDGVEQKLAAGDVIEGKVKRLTDFGAFVEVLPGIDGLVHISQISHKRVENPKDVLSAGQEVTVKVLEVNSDAERVSLSMKALEERPAQAEGEKEEKRQSRPRRPRRQEKRDYELPETQTGFSMADLFGDIELLEHHHHHH | soluble
MKKALLVVSFGTSYHDTCEKNIVACERDLAASCPDRDLFRAFTSGMIIRKLRQRDGIDIDTPLQALQKLAAQGYQDVAIQSLHIINGDEYEKIVREVQLLRPLFTRLTLGVPLLSSHNDYVQLMQALRQQMPSLRQTEKVVFMGHGASHHAFAAYACLDHMMTAQRFPARVGAVESYPEVDILIDSLRDEGVTGVHLMPLMLVAGDHAINDMASDDGDSWKMRFNAAGIPATPWLSGLGENPAIRAMFVAHLHQALNMAVEEAA | soluble
MSKATFDPTRYNKSNNEPFNQVLDKHLSRRNFVKSGLGLGAMTAFAGMGLTGCGSDSSSSPIPVDPVPPLPPTKSSAKLNFTSVKGARLNAVVVPEGYSAQVLAPWGTPLNAKAAPWKADGSNTADDQANSVGMHHDGMHFFPLNQAGDDGLLCINHEYIDEIALHPNGPTVDATTGLRTIVDEVRKEINAHGVSVVRIKLTNNQWEVVYNDKHNRRFTGATVMDIAGPLAYSPLLETRYSPDGSQARGTLNNCGNGYTPWGTYLTCEENWPEYFVNRSTLTRDQIRIGISKTSSRYGWDDLAGQDEERLDEFSRFDVTPKGVSARDDYRNEANGHGYIVEIDPYNPTSRAIKRTALGRFRHEGCTFGKLSEGQPVVFYSGHDARFEYLYKFVSAAPWNPQDANSSNRLEIGDKYMNEGTLYAAKFNENGVGAWLPLTLDSQTTDGKTLGNSFASLADIILNTAGAADLLGATPMDRPEWCAVDPFTGSVYLTLTNNSKRTEANPANPRLKNNFGHIIRWDEADKETEFTWDIFVFGSPSDGNAETNLSGLTDLNQFASPDGLAFDKRGILWVQTDNGAEEVAEETNDQMLAIVPSTLLDSANKQTSVTAKNQMELKRFFVGPNDCEVTGFAISPDYKTVFANIQHPGNWPYSNNAAEVTPTGVVLRPRAATVVIRKLDGKEVAVLEHHHHHH | not soluble
MGSDKIHHHHHHADWKVGIQTWTFHNLTLMETLDKTQQLGMGYAEAFFFQELGAPFPKETYLNYDLSDDNCALLRHEFKIRGIKPIAFGVASYGTNEEWDKFFAFAHKIGAHIVTVEPELNQLDYIESLAKKYDMEVAIHNHPSPCIYASAEVVEKALKGRSPLMGVCADIGHWKRVGEDPLKNLQKLSGRIKVAHLKDLTDKMEDATWGTGILPVKAFVNELKRQHFNGLISIEYDDFKSDIQEIRNSLEFLQKCSK | not soluble
GHMAGNPPDPNAASTGTNPSPQAAGDISPEMMPETANIKLGYIPIVEAAPLIIAQEKGFFAKYGMTGVEVSKQANWASARDNVTIGSQGGGIDGGQWQMPMPHLITEGIITNGNKVPMYVLAQLITQGNGIAVAPMHEGKGVNLDITKAADYIKGFNKTNGRKFKAAHTFPNVNQDFWIRYWFAAGGVDPDTDIDLLAVPPAETVQGMRNGTMDAFSTGDPWPYRIVTENIGYMAGLTAQIWPYHPEEYLAIRADWVDKNPKATKALLKGIMEAQQWIDDPKNRPEVVQIVSGRNYFNVPTTILESPFKGQYTMGDGQPAIDDFQKGPLYWKDGIGNVSYPYKSHDLWFLTESIRWGFHKNAIPDLDTAQKIIDKVNREDLWREAATEAGFTADIPSSTSRGVETFFDGITFDPANPSAYLQSLAIKKV | soluble
MGSDKIHHHHHHSCDNDDDESIAVPTPLQEAFSTRYPNVKNVKWETKAGYYVADFYDGYEASAWFTTDGNWHMTETDIPYTALPDPVKSAFEASDYKTWKRDDVDKLERQGIETVYVIEVENQNQEVDLYYSADGVLIKSIADTDDHENEHLPTTQLPAVMKTFIDGKYAGARIVEVDVEDDKNDWDFGFTEVDIIHFDSGLNRNVSKEVLFDKGREWYSTSWEVRRNELPTAVTNAISTEYAGYQMDDAEYFEMATETSYYQIELEGNNSPDIDIKVTADGTILK | not soluble
MPVLGQIWELSDSQKVGSLDKRGAFVAFKLVAAAQQGKPVANSSLYDSSLQPPRFAPPVPPANMQHHFQPSFPSVGRAPPVPPPPHPSHPYSISSQQSSPAHPSSAFPPQWPITPTDQAKYDSIFQSLNPVNGKLSGAHVRPVLMNSGLDAHALARIWELSDQDKDGNLDRIEMSVALHLVYRSLQSDPVPAQLPPNLIHPSKAMYAHSSPNFAAPPHPPRPMMGSRAGSVTSLDDVNMSQSYSATMPRAYPPQPGRAYSAQAHVNGSRTSGASTPISASHSIHSFPAGEWPINTGDYADQFAQTDTNKDGLVDGMDMRAPMMTTGLSAQILAHVWALADIKKCGQLNLEQFALTMHLLDMAKRGESIPSELPLHLIPPSFRPPTEPSALHHPAQSVSTPQLPEATSMEIKEALEGENEEMKQLAESIQSMLVERKTAEEAVLQLEADMTIKNSSIKNLQVELATLESTVKQLERQKGEATRRLADYDTQIEQLESACKAQKETKEDTEKRMQQIDEDAKNAEDCKANDEKEMEELKKEIEMLDNQFKTVRGEIVKETSQREQKVAELTTLERKEARDQIQMEKLDAAIENTTKLTEQVSDAVEKSEEEMVQILRSQQRLLSTVIDQSLLSDDTVYGETAGTSSQNHVQQPPDPFASARANPAADPFAQVDQFGSSGHFDAAFPTDPFAQGGFPSDSGFAQSAPAKPAPPRPAPPKSARETPVNDPFAPSQGQSTQPAGFADFADFGSAFN | not soluble
PLNEVVRLHGSSGTSGKPTVVAYTQKDLEHWSSIIARSIYMAGGRKGDLLHNAYGYGLFTGGLGLHGGSEKLGCVTVPISGGNTQRQITLIQDFKPRVICGTPSYIMNIGETMKKMGIDPASTSIQYAILGSEPWSEEMRKNLETMFNMKAMDIYGLSEVIGPGVGMEC | not soluble
MGSDKIHHHHHHMNSSQKRVLHVLSGMNRGGAETMVMNLYRKMDKSKVQFDFLTYRNDPCAYDEEILSLGGRLFYVPSIGQSNPLTFVRNVRNAIKENGPFSAVHAHTDFQTGFIALAARLAGVPVRVCHSHNTSWKTGFNWKDRLQLLVFRRLILANATALCACGEDAGRFLFGQSNMERERVHLLPNGIDLELFAPNGQAADEEKAARGIAADRLIIGHVARFHEVKNHAFLLKLAAHLKERGIRFQLVLAGDGPLCGEIEEEARQQNLLSDVLFLGTEERIHELMRTFDVFVMPSLYEGLPVVLVEAQASGLPCIISDSITEKVDAGLGLVTRLSLSEPISVWAETIARAAAAGRPKREFIKETLAQLGYDAQQNVGALLNVYNISTEKDHNR | not soluble
MKRDGHTHTEFCPHGTHDDVEEMILKAIELDFDEYSIVEHAPLSSEFMKNTAGNQEAVTTASMSMSDLPYYFKKMNQMKKKYASDLLIHIGFEVDYLIGYEDFTRDFLNEYGPQTDDGVLSLHFLEGQGGFRSIDFTAEDYNEGIVQFYGGFEQAQLVYLAGVKQSIEADLGAFKPRRIGHISLCQKFQQFFGADGRDFTAEVIAEFEAILALVKKRGYELDFNTAGLFKPLCKETYPPKEIVTLARALEIPFVYGSDSHGVADIGRGYNTYCQKLEHHHHHH | soluble
